Results: patent US20210355235A1, “Compositions and Methods For Treating Cancer with Anti-Renalase antibodies and Anti-PD1 antibodies” (YALE UNIVERSITY, priority 2017, published 2021)
Residue numbers refer to the chain shown, from its start. Where two headings read alike, the source gives them in different places. Values belong to the molecule of their own block, whether it stands above or below them.

How the values were obtained:
[1] = test system: renalase-1 and renalase-2; test: renalase isoform specificity of the antibodies (ELISA / hybridoma screening); assay type: binding, human; details: renalase-1 vs renalase-2
Method: Peptides were used as immunogens. The peptides generated ranged from 9 to 21 amino acids and corresponded to regions of the renalase-1 and renalase-2 proteins. […] Each peptide was conjugated to the adjuvant KLH via the cysteine and used to immunize 6 rabbits. Antiserum collected from each animal was screened for anti-renalase antibody titer by ELISA assay using both the relevant peptide (BSA-conjugate) or full length renalase-1 or 2. The antisera were also tested for their ability to detect endogenous renalase in tissue lysates by western blot. Using these screening criteria the animals producing antibodies with the preferred characteristics were selected. In some examples and for some peptides, several animals produced antibodies with the required specificity. […] Polyclonal antibodies raised against all of the peptides were generated by purification of total IgG from terminal bleeds by protein G chromatography followed by further purification on peptide affinity chromatography. Further and using standard procedures, lymphocytes from the spleens of selected animals were fused to myeloma cells for hybridoma generation. The hybridoma supernatants were screened for binding to both the peptides against which they were raised and secondarily screened against whole renalase protein. Selected hybridomas were sub-cloned and expanded for antibody purification. The monoclonal antibodies were purified from conditioned hybridoma culture supernatant by protein A affinity chromatography.

[2] = test system: A375.S2, MeWo, SkMel5 and SkMel28 cells; test: survival of serum-starved melanoma cells, WST-1; assay type: cell-based, human; details: 30 ug/ml, 72 hrs
Method: (§1) Total cell number and percentage of live cells were assessed by trypan blue exclusion, and cells were counted using a BioRad TC10 automated cell counter. For additional studies, cell viability was determined using WST-1 reagent (Roche Diagnostics, Indianapolis, Ind., USA) according to the manufacturers' instruction. Absorbances were read using a microplate reader (Power Waves XS, BioTek Instruments, Winooski, Vt., USA).
RNLS-mediated signaling is anti-apoptotic, and protects normal cells exposed to toxic stress from apoptotic death (Wang et al., 2014 J Am Soc Nephrol.; Lee et al., 2013 J Am Soc Nephrol. 24:445-55). To explore if RNLS signaling favored the survival of cancer cells, either recombinant RNLS (rRNLS) or bovine serum albumin (BSA) was added to serum-starved melanoma cells (A375.S2, MeWo, SkMel5, and SkMel28) in culture, and cell viability was determined. […] The total cell number and percentage of live cells of those treated with RNLS were counted to determine if the apparent increase in proliferative rate was due an increase in cell proliferation or to a decrease in the rate of apoptosis.

Panc1 cells = test: western blot of p38 and STAT3 phosphorylation; assay type: cell-based, human
Excerpt: FIG. 27, comprising FIGS. 27A through 27E, is a series of images and charts showing the interaction between RNLS and STAT3, and the mechanistic model of inhibition by m28-RNLS. FIG. 27A is an image showing activation of STAT3 by RNLS in Panc1 cells; Panc1 cells in culture treated with either BSA or RNLS, and STAT3 phosphorylation assessed by western blot; p-Ser^727-STAT3: phosphorylation at serine 727, p-Y^705-STAT3: phosphorylation at tyrosine 705; representative study. FIG. 27B is a chart depicting the quantification of STAT3 phosphorylation with RNLS; signals normalized to total STAT3; n=3, *=P<0.05. […] FIG. 27D is a chart showing the quantification of STAT3 phosphorylation with m28-RNLS; signals normalized to GAPDH loading control; n=3, *=P<0.05. FIG. 27E depicts the proposed mechanistic model for antitumor activity of m28-RNLS.

HK-2 cells = test: STAT phosphorylation in HK-2 cells treated with RNLS; assay type: cell-based, human
Excerpt: STAT3 binds to the promoter region of the RNLS gene and increases its expression (Sonawane et al., 2014 Biochemistry. 53(44):6878-6892).

MiaPaCa2 cells = test: FACS cell cycle analysis with rRNLS; assay type: cell-based, human; details: 30 μg/ml
Method: For cell cycle analysis, cultured cells were dissociated using 10 mM EDTA, fixed with ice-cold 70% ethanol, digested with RNAse A, and stained with propidium iodide. Propidium staining was detected using a BD FACSCalibur flow cytometer (BD Biosciences, San Jose, Calif., USA), and analyzed using CellQuest software.

[3] = test system: PDACC (pancreatic ductal adenocarcinoma cells); test: PDACC viability with anti-RNLS antibodies, WST-1; assay type: cell-based, human; details: 72 hrs
Method: FIG. 25, comprising FIGS. 25A through 25E, is a series of charts and images showing that inhibition of RNLS signaling is cytotoxic to cancer cells in vitro and in vivo. FIG. 25A is a chart showing relative cell viability following transient transfection of Panc1 cells using a RNLS-specific siRNA, or a non-specific control siRNA, and cell viability assayed 96 h later using the WST-1 reagent; n=6, ** indicates p<0.001. FIG. 25B is a chart showing relative cell viability when cells were treated with indicated antibodies for 72 hrs and cell viability determined using WST-1; m28-RNLS and m37-RNLS: monoclonal antibodies raised against RNLS peptide RP220, ab31291: Abcam polyclonal antibody raised against a partial sequence of RP-220; n=6, * indicates p<0.005. […] FIG. 25D is a chart showing tumor volume increase after athymic nude mice received subcutaneous injection of Panc1 cells transduced with RNLS shRNA (sh-RNLS) or control (sh-Control); tumor volume measured every […] for up to 30 days, n=6 each; * indicates p<0.05. FIG. 25E is chart showing tumor volume increase after nude mice were xenografted with BxPC3; tumor volume measured prior to treatment every 3-4 days with 2 mg/kg of either rabbit IgG as a negative control or with m28-RNLS, n=10, * indicates p<0.05.
Cell viability was assessed by trypan blue exclusion, and cells were counted using a BioRad TC10 automated counter.

melanoma cell lines = test: melanoma cells in culture, viability / growth; assay type: cell-based, human
Method: as §1

- renalase-type specificity [1]: specific for renalase-2
B1: 3A-5-2: anti-renalase monoclonal specific for renalase-2; heavy chain SEQ ID NO:41, light chain SEQ ID NO:42 (antibody)
heavy: METGLRWLLLVAVLKGVQCQSLEESGGRLVTPGTPLTLTCTVSGFSLNNYHIYWVRQAPGKGLEYIGIIFNGGTYYARWTKGRFTISKTSTTVDLKMTSLTTEDTATYFCARGDGIWGPGTLVTVSLGQPKAPSVFPLAPCCGDTPSSTVTLGCLVKGYLPEPVTVTWNSGTLTNGVRTFPSVRQSSGLYSLSSVVSVTSSSQPVTCNVAHPATNTKVDKTVAPSTCSKPTCPPPELLGGPSVFIFPPKPKDTLMISRTPEVTCVVVDVSQDDPEVQFTWYINNEQVRTARPPLREQQFNSTIRVVSTLPIAHQDWLRGKEFKCKVHNKALPAPIEKTISKARGQPLEPKVYTMGPPREELSSRSVSLTCMINGFYPSDISVEWEKNGKAEDNYKTTPAVLDSDGSYFLYSKLSVPTSEWQRGDVFTCSVMHEALHNHYTQKSISRSPGK
light: MDTRAPTQLLGLLLLWLPGATFAQVLTQTPASVSAAVGGTVTINCQASQSVFNNNYLAWYQQKPGQPPKRLIYSASTLASGVSSRFKGSGSGTEFTLTMSGVECDDAATYYCAGSFDCNSGDCVAFGGGTEVVVKGDPVAPTVLIFPPAADQVATGTVTIVCVANKYFPDVTVTWEVDGTTQTTGIENSKTPQNSADCTYNLSSTLTLTSTQYNSHKEYTCKVTQGTTSVVQSFNRGDC
modifications: 3A-5-2 full length heavy chain amino acid; 3A-5-2 full length light chain amino acid

- renalase-type specificity [1]: specific for renalase-1
B2: 1F-26-1: anti-renalase monoclonal specific for renalase-1; heavy chain SEQ ID NO:25, light chain SEQ ID NO:26 (antibody)
heavy: METGLRWLLLVAVLKGVQCQSVKESEGGLFKPTDTLTLTCTVSGFSLSSYGVTWVRQAPGNGLEWIGLIGDRGTTFYASWAKSRSTITRNTNLNTVTLKMTRLTAADTATYFCARGSGYGARIWGPGTLVTVSSWQPKAPSVFPLAPCCGDTPSSTVTLGCLVKGYLPEPVTVTWNSGTLTNGVRTFPSVRQSSGLYSLSSVVSVTSSSQPVTCNVAHPATNTKVDKTVAPSTCSKPTCPPPELLGGPSVFIFPPKPKDTLMISRTPEVTCVVVDVSQDDPEVQFTWYINNEQVRTARPPLREQQFNSTIRVVSTLPIAHQDWLRGKEFKCKVHNKALPAPIEKTISKARGQPLEPKVYTMGPPREELSSRSVSLTCMINGFYPSDISVEWEKNGKAEDNYKTTPAVLDSDGSYFLYSKLSVPTSEWQRGDVFTCSVMHEALHNHYTQKSISRSPGK
light: MDTRAPTQLLGLLLLWLPGATFAQVLTQTPSPVSAAVGGTVTINCQSSQSVYKNNYLAWYQQKPGQPPKLLIYETSKLASGVPPRFSGSGSGTQFTLTISSVQCDDAATYYCQGGYSGVDFMAFGGGTEVVVKGDPVAPTVLIFPPSADLVATGTVTIVCVANKYFPDVTVTWEVDGTTQTTGIENSKTPQNSADCTYNLSSTLTLTSTQYNSHKEYTCKVTQGTTSVVQSFNRGDC
modifications: 1F-26-1 full length heavy chain amino acid; 1F-26-1 full length light chain amino acid

- renalase-type specificity [1]: specific for renalase-1
B3: 1F-42-7: anti-renalase monoclonal specific for renalase-1; heavy chain SEQ ID NO:33, light chain SEQ ID NO:34 (antibody)
heavy: B2 heavy with S48T, S49T, F76Y, A81V, K82N, S83G, S133A
light: B2 light with V33M, V37L, S50T, K53N, A58S, A79S
modifications: 1F-42-7 full length heavy chain amino acid; 1F-42-7 full length light chain amino acid

B4: rRNLS: recombinant human RNLS (renalase) (protein, UniProt Q5VYX0 18-342, looked up)
Renalase: ALLRRQTSGPLYLAVWDKAEDSGGRMTTACSPHNPQCTADLGAQYITCTPHYAKKHQRFYDELLAYGVLRPLSSPIEGMVMKEGDCNFVAPQGISSIIKHYLKESGAEVYFRHRVTQINLRDDKWEVSKQTGSPEQFDLIVLTMPVPEILQLQGDITTLISECQRQQLEAVSYSSRYALGLFYEAGTKIDVPWAGQYITSNPCIRFVSIDNKKRNIESSEIGPSLVIHTTVPFGVTYLEHSIEDVQELVFQQLENILPGLPQPIATKCQKWRHSQVTNAAANCPGQMTLHHKPFLACGGDGFTQSNFDGCITSALCVLEALKNYI
- survival of serum-starved melanoma cells compared to BSA [2]: markedly increased the survival
- phosphorylated STAT3 (p-Ser727-STAT3 and p-Y705-STAT3) after RNLS (Panc1 cells): rapid increase
- STAT1 (HK-2 cells): unaffected
- increase of STAT3 phosphorylation at serine 727 (p-Ser727-STAT3) (HK-2 cells): 2 fold
- increase of STAT3 phosphorylation at tyrosine 705 (p-Y705-STAT3) (HK-2 cells): 4 fold
- cell cycle progression compared to BSA (MiaPaCa2 cells): no effect on cell cycle progression

- renalase-type specificity [1]: recognize renalase-1 and renalase-2
B5: m37-RNLS: rabbit anti-renalase monoclonal raised against RP-220; heavy chain SEQ ID NO:17, light chain SEQ ID NO:18 (antibody)
heavy: METGLRWLLLVAVLKGVQCQSVEESGGRLVTPGGSLTLTCTVSGFSLSDYAIIWVRQAPGKGLEYIAIIGSSGDTFYATWAKGRFTISKTSTTVDLKMTSLTAADTATYFCAPRYAGTTDYHDAFDPWGPGTLVTVSSGQPKAPSVFPLAPCCGDTPSSTVTLGCLVKGYLPEPVTVTWNSGTLTNGVRTFPSVRQSSGLYSLSSVVSVTSSSQPVTCNVAHPATNTKVDKTVAPSTCSKPTCPPPELLGGPSVFIFPPKPKDTLMISRTPEVTCVVVDVSQDDPEVQFTWYINNEQVRTARPPLREQQFNSTIRVVSTLPIAHQDWLRGKEFKCKVHNKALPAPIEKTISKARGQPLEPKVYTMGPPREELSSRSVSLTCMINGFYPSDISVEWEKNGKAEDNYKTTPAVLDSDGSYFLYSKLSVPTSEWQRGDVFTCSVMHEALHNHYTQKSISRSPGK
light: MDTRAPTQLLGLLLLWLPGARCAEVVMTQTPASMEAPMGGTVTIKCQASQNIYNYLSWYQQKPGQPPKLLVYKASTLTSGVPSRFKGSGSGTQFTLTISDLECADAATYYCQINYSIYNHYNIIFGGGTEVVVKGDPVAPTVLIFPPSADLVATGTVTIVCVANKYFPDVTVTWEVDGTTQTTGIENSKTPQNSADCTYNLSSTLTLTSTQYNSHKEYTCKVTQGTTSVVQSFNRGDC
modifications: 1D-37-10 full length heavy chain amino acid; 1D-37-10 full length light chain amino acid
- PDACC growth / viability [3]: inhibitory effects
- melanoma cell viability / growth in culture (melanoma cell lines): decreased the viability of all (total of 5) melanoma cell lines tested
- melanoma cell viability / growth in culture (melanoma cell lines; listed as 1D-37-10): inhibit melanoma cells in culture
- melanoma cell viability / growth in culture (melanoma cell lines; listed as D-37-10): inhibit melanoma cell growth
